{
  "source": "patent US20200109398",
  "test_system": "R4Al (R4_AL) retrotransposase (Ascaris lumbricoides)",
  "assay": "cell_activity",
  "details": "ddPCR 3' junction, HEK293T, plasmid cis",
  "data": [
    {"substance": "human rDNA R4 target site", "values": [
      {"measurement": "activity (copies/genome)", "result": 0.085}
    ]}
  ]
}
